What was measured:
[1] = biological target: human FcγRIIIa-V176 (human) (UniProt P08637); assay: BLI (Octet RED96), biotinylated receptor on SA sensor
[2] = biological target: human FcγRIIIa-F176 (human) (UniProt P08637); assay: as above
[3] = biological target: human FcγRIIIa-V176 (human) (UniProt P08637); assay: BLI (Octet), receptor on sensor
human FcγRIIb (human) = human FcγRIIb (human) (UniProt P31994); assay: BLI (Octet), receptor on sensor
[4] = biological target: human FcγRIIIb-NA2 (human) (UniProt O75015); assay: BLI (Octet), receptor on sensor
human FcγRIIIb-NA2 (human), sequence (O75015 17-200 N65S limits assumed): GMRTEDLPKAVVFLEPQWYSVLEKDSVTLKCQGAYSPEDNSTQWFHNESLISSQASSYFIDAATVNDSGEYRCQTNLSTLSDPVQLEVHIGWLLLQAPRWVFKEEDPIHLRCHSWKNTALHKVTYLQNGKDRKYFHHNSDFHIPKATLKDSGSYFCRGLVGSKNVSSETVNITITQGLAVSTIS

[5] = biological target: human FcγRIIIb-NA1 (human) (UniProt O75015); assay: BLI (Octet), receptor on sensor
human FcγRIIIb-NA1 (human), sequence (O75015 other isoform, or with tags, fused parts or gaps limits assumed): as the sequence (O75015 17-200 N65S limits assumed) above, with S20R, S49N, N66D, I90V counted along it

[6] = biological target: human FcγRIIa-H167 (human) (UniProt P12318); assay: BLI (Octet), receptor on sensor
human FcγRIIa-H167 (human), sequence (P12318 36-218 limits assumed): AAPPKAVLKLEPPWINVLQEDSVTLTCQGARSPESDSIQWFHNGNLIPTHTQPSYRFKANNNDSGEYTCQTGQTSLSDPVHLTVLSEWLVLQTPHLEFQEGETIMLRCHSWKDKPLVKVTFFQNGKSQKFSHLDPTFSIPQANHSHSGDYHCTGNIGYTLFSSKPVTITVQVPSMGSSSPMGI

[7] = biological target: human FcγRIIa-R167 (human) (UniProt P12318); assay: BLI (Octet), receptor on sensor
human FcγRIIa-R167 (human), sequence (P12318 36-218 H167R limits assumed): as the sequence (P12318 36-218 limits assumed) above, with H132R counted along it

human FcγRI (human) = human FcγRI (human) (UniProt P12314); assay: BLI (Octet), receptor on sensor
human FcγRI (human), sequence (P12314 16-288 limits assumed): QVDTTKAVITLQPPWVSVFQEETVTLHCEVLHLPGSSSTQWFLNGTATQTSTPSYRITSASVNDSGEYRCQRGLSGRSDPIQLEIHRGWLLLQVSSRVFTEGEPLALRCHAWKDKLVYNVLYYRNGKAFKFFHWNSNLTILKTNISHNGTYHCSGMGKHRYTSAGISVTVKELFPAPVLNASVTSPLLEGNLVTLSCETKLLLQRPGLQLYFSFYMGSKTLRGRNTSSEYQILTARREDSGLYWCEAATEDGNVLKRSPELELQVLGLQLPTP

[8] = biological target: human FcγRIIIa-F176 (human) (UniProt P08637); assay: BLI (Octet), receptor on sensor
[9] = biological target: Human FcRn (FCGRT&B2M) Protein (human) (UniProt P55899); assay: BLI (Octet RED96), His-tagged FcRn on Ni-NTA sensor, pH 6.0
human C1q (human) [10] = biological target: human C1q (human) (UniProt P02745); assay: BLI (Octet RED96), biotinylated antibody on SA sensor, C1q in solution
human C1q (human), sequence (P02745 23-245, chain 1 of 3): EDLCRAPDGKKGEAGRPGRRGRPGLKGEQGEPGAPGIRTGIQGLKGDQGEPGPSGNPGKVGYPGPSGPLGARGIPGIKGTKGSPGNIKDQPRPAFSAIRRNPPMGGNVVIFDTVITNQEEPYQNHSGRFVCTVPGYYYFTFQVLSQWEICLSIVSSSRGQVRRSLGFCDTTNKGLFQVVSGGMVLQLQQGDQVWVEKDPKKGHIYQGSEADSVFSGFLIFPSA
human C1q (human), sequence (P02746 28-253, chain 2 of 3, further chain): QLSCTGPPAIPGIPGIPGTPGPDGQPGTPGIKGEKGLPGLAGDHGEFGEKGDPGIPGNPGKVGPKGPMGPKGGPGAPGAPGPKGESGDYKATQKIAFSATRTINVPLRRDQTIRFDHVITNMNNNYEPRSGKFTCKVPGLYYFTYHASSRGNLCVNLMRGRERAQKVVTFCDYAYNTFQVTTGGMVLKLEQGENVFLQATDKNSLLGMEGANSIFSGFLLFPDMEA
human C1q (human), sequence (P02747 29-245, chain 3 of 3, further chain): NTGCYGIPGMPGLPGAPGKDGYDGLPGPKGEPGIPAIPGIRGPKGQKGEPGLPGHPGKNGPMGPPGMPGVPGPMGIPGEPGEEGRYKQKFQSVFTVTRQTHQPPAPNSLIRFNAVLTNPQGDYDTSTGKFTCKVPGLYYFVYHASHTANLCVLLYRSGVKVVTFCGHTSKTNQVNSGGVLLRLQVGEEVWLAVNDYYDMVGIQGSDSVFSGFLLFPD

human C1q (human) [11] = biological target: human C1q (human) (UniProt P02745); assay: BLI (Octet), biotinylated antibody on sensor, C1q in solution
[12] = biological target: Human FcRn (FCGRT&B2M) Protein (human) (UniProt P55899); assay: BLI (Octet), FcRn on sensor, pH 6.0
human CLDN18.2 (human) = assay: flow cytometry on NCI-H146 cells; unit taken from the concentration axis; fit of the flat control curve

human FcγRIIIa-F176 (human), sequence (P08637 17-208 limits assumed): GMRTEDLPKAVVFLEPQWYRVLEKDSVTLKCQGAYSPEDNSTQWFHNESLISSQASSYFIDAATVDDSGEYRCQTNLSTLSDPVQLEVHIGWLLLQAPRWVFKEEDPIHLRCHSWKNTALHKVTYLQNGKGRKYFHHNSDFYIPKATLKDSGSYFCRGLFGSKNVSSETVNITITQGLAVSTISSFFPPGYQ
human FcγRIIIa-V176 (human), sequence (P08637 17-208 F176V limits assumed): as the sequence (P08637 17-208 limits assumed) above, with F160V counted along it
human FcγRIIb (human), sequence (P31994 46-217 limits assumed): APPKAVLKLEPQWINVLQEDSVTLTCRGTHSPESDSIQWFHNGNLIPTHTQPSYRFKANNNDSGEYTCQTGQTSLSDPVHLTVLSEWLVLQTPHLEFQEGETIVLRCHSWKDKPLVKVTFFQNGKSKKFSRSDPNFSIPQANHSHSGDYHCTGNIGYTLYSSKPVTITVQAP

Row | Kd [1] [nM] | Kd [2] [nM] | Kd [3] [nM] | Kd (human FcγRIIb (human)) [nM] | Kd [4] [nM] | Kd [5] [nM] | Kd [6] [nM] | Kd [7] [nM] | Kd (human FcγRI (human)) [nM] | Kd [8] [nM] | Kd [9] [nM] | Kd (human C1q (human) [10]) [nM] | Kd (human C1q (human) [11]) [nM] | Kd [12] [nM] | EC50 (human CLDN18.2 (human)) [µg/mL] | Substance
1 | 61.5 | 232 | 61.5 | 230 | 3160 | 3970 | 193 | 117 | 5.22 | 232 | 10.5 | 21.5 | 21.5 | 10.5 | – | IMAB362 (antibody)
2 | – | – | – | – | – | – | – | – | – | – | – | – | – | – | 3.67 | Isotype Control (antibody)
